This test has as its target β-catenin (UniProt P35222). Kind of test: GST pull-down after in vitro kinase reaction. To be noted: reference: WT His-α-catenin with CK2α; sites S641.

Turning to “α-catenin (from UniProt P35221) His-α-catenin S641A with CK2α”, the “binding against the reference” value was “stronger”.
